# Results: the RNAGym collection of RNA variant scans (doi:10.1073/pnas.2313332121)
# B1: TPR t1 (parent)
# chain: GACCAAUCUGCCCUCAGAGCUCGAGAACAUCUUCGGAUGCAGAGGAGGCAGGCUUCGGUGGCGCGAUAGCGCCAACGUCCUCAACCUCCAAUGCAUCCCACCACAUGAUGAUGCCUGAAGAGCCUUGGUUUUUUG
# Variants of: B1
# Experiment: polymerase ribozyme fitness, log enrichment relative to wild type (log ratio); higher = more active; in vitro selection for triplet polymerase activity
# Procedure, shortened: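 Mutant libraries were PCR-built and transcribed for each subunit of a heterodimeric triplet polymerase ribozyme and selected for one round in triplicate at −7 °C, frozen, before gel excision of extended constructs and streptavidin-bead capture. Input and output libraries were Illumina-sequenced, keeping genotypes with ≥10 input reads and ≥1 read per output. Fitness is a logarithmic ratio of genotype to wild-type enrichment, in base 2, using inverse-variance-weighted replicate averages.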
row,Variant,polymerase ribozyme fitness (log ratio)
1,GACCAAUCUGCCCUCAGAGCUCGAGAACAUCUUCGGAUGCAGAGGAGGCAGGCUUCGGUGGUGCGAUAGCGCCAACGUCCUCAACCUCCAAUGCAUCCCACCACAUGAUUAUGCCUGAAGAGCCUUGGUUUUUUG [C62U G110U],-1.14
2,GACCAAUCUGCCCUCAGAGCUCGAGAACAUCUUCGGAUGCAGAGGAGGCAGGCUUCGGUGGCACGAUAGCGCCAACGUCCUCAACCUCCAAUGCAUCCCACCACAUAAUGAUGCCUGAAGAGCCUUGGUUUUUUG [G63A G107A],-6.55
3,GACCAAUCUGCCCUCAGAGCUCGAGAACAUCUUCGGAUGCAGAGGAGGCAGGCUUCGGUGGCACGAUAGCGCCAACGUCCUCAACCUCCAAUGCAUCCCACCACAUGAUGAUACCUGAAGAGCCUUGGUUUUUUG [G63A G113A],-1.68
4,GACCAAUCUGCCCUCAGAGCUCGAGAACAUCUUCGGAUGCAGAGGAGGCAGGCUUCGGUGGCACGAUAGCGCCAACGUCCUCAACCUCCAAUGCAUCCCACCACAUGAUGAUGUCUGAAGAGCCUUGGUUUUUUG [G63A C114U],-2.82
5,GACCAAUCUGCCCUCAGAGCUCGAGAACAUCUUCGGAUGCAGAGGAGGCAGGCUUCGGUGGCACGAUAGCGCCAACGUCCUCAACCUCCAAUGCAUCCCACUACAUGAUGAUGACUGAAGAGCCUUGGUUUUUUG [G63A C102U C114A],-6.03
6,GACCAAUCUGCCCUCAGAGCUCGAGAACAUCUUCGGAUGCAGAGGAGGCAGGCUUCGGUGGUGCGAUAGCGCCAACGUCCUCAACCUCCAAUGCAUCCCACCACAUGAUGAUGCCUGAAGAGCCAUGGUUUUUUG [C62U U125A],-1.11
7,GACCAAUCUGCCCUCAGAGCUCGAGAACAUCUUCGGAUGCAGAGGAGGCAGGCUUCGGUGGCACGAUAGGGCAAACGUCCUCAACCUCCAAUGCAUCCCACCACAUGAUGAUGCCUGAAGAGCCUUGGUUUUUUG [G63A C70G C73A],-5.82
8,GACCAAUCUGCCCUCAGAGCUCGAGAACAUCUUCGGAUGCAGAGGAGGCAGGCUUCGGUGGUGCGAUAACGCCAACGUCCUCAACCUCCAAUGCAUCCCACCACAUGAUGAUGCCUGAAGAGCCUUGGUUUUUUG [C62U G69A],-3.76
9,GACCAAUCUGCCCUCAGAGCUCGAGAACAUCUUCGGAUGCAGAGGAGGCAGGCUUCGGUGGUGCGAUAGCGCCAACGUCCUCAACCUCCAAUGCAUCCCACCACAUGAUGAUGCCUGAAGAGCUUUGGUUUUUUG [C62U C124U],0.977
10,GACCAAUCUGCCCUCAGAGCUCGAGAACAUCUUCGGAUGCAGAGGAGGCAGGCUUCGGUGGCACGAUAGCGCCAACGUCCUCAACCUCGAAUGCAUCCCACCACAUGAUGAUGCCUGAAGAGCCUUGGUUUUUUG [G63A C89G],-2.7
11,GACCAAUCUGCCCUCAGAGCUCGAGAACAUCUUCGGAUGCAGAGGAGGCAGGCUUCGGUGGCACGAUAGCGCCAACGUCCUCAACCUCUAAUGCAUCCCACCACAUGAUGAUGCCUGAAGAGCCUUGGUUUUUUG [G63A C89U],-1.62
12,GACCAAUCUGCCCUCAGAGCUCGAGAACAUCUUCGGAUGCAGAGGAGGCAGGCUUCGGUGGCACGAUAGCGCCAACGUCCUCAACCUCCAAUACAUCCCACCACAUGAUGAUGCCUGAAGAGCCUUGGUUUUUUG [G63A G93A],-1.38
13,GACCAAUCUGCCCUCAGAGCUCGAGAACAUCUUCGGAUGCAGAGGAGGCAGGCUUCGGUGGCACGAUAGCACCAACGUCCUCAACCUCCAAUGCAUCCCACCACAUGAUGAUGCCUGAAGAGCCUUGGUUUUUUG [G63A G71A],-2.59
14,GACCAAUCUGCCCUCAGAGCUCGAGAACAUCUUCGGAUGCAGAGGAGGCAGGCUUCGGUGGUGCGAUAGCGCCAACGUCCUCAACCUCCAAUACAUCCCACCACAUGAUGAUGCCUGAAGAGCCUUGGUUUUUUG [C62U G93A],-0.42
15,GACCAAUCUGCCCUCAGAGCUCGAGAACAUCUUCGGAUGCAGAGGAGGCAGGCUUCGGUGGCACGAUAUCGCCAACGUUCUCAACCUCCAAUGCAUCCCACCACAUGAUGAUGCCUGAAGAGCCUUGGUUUUUUG [G63A G69U C79U],-0.72
16,GACCAAUCUGCCCUCAGAGCUCGAGAACAUCUUCGGAUGCAGAGGAGGCAGGCUUCGGUGGCACGAUAGCGCUAACGUCCUCAACCUCCAAUGCAUCCCACCACAUGAUGAUGCCUGAAGAGCCUUGGUGUUUUG [G63A C73U U130G],-0.938
17,GACCAAUCUGCCCUCAGAGCUCGAGAACAUCUUCGGAUGCAGAGGAGGCAGGCUUCGGUGGCACGAUAGCGCCAACGUCAUCAACCUCCAAUGCAUCCCACCACAUGAUGAUGCCUGAAGAGCCUUGGUUUUUUG [G63A C80A],-4.42
18,GACCAAUCUGCCCUCAGAGCUCGAGAACAUCUUCGGAUGCAGAGGAGGCAGGCUUCGGUGGCACGAUAGCGCCUACGUCCUCAACCUCCAAUGCAUCCCACUACAUGAUGUUGCCUGAAGAGCCUUGGGUUUUUG [G63A A74U C102U A111U U129G],-5.79
19,GACCAAUCUGCCCUCAGAGCUCGAGAACAUCUUCGGAUGCAGAGGAGGCAGGCUUCGGUGGUUCGAUAGCGCCAACGUCCUCAACCUCCAAUGCAUCCCACCCCAUGAUGAUGACUGAAGAGCCUUGGUUUUUUG [C62U G63U A103C C114A],-4.66
20,GACCAAUCUGCCCUCAGAGCUCGAGAACAUCUUCGGAUGCAGAGGAGGCAGGCUUCGGUGGCACGAUAGCGCCAACGUCCUCAACCUCCAAUGCAUCCCACCACAUGAUCAUGCGUGAAUAGCCUUGGUUUUUUG [G63A G110C C115G G120U],-7.28
21,GACCAAUCUGCCCUCAGAGCUCGAGAACAUCUUCGGAUGCAGAGGAGGCAGGCUUCGGUGGUGCGAUAGCGCCAACGUCCUCAACCUCCAAUGCAUCCCACCACAUGAUGAUGCCUGAAGAGUCUUGGUUUUUUG [C62U C123U],1.47
